Test results taken from patent CN114057887A.

Biological target: RBD-His (近岸生物货号:DRA42) (SARS-CoV-2) (UniProt P0DTC2)

hACE2-Fc融合蛋白 (人ACE2胞外区(ECD)与人IgG1的Fc片段的融合蛋白) (Fc fusion)
亲和力: 0.54 nM
